According to the supplement of paper PMC10724198:
± gives the standard deviation of the averaged measurements.

Test system: Saccharomyces cerevisiae
Assay: protein stability index of tFT-peptide fusion (C-terminal peptide) (PSI (0-1 scale)); higher = more stable (slower turnover)
Details: temperature: 30 C
Protocol: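 MPS profiling in S. cerevisiae of the yeast C-terminome library: the last 12 aa of each annotated ORF are fused to the C-terminus of a sfGFP-mCherry timer, after a GGGS linker. Cells are FACS-sorted into 8 mCherry/sfGFP bins and deep-sequenced. PSI runs from 0 (unstable) to 1 (stable); wild type and das1Δ backgrounds, two technical replicates each.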

[1] = genetic background: das1 deletion

| Sequence | protein stability index [1] | protein stability index (genetic background: wild type) |
| --- | --- | --- |
| RHSCGRQMRVLA [AUA1 C-terminal 12 aa] | 0.6614 ± 0.0011 | 0.248 ± 0.0083 |
| RIEMDLALTEPL [ORC6 C-terminal 12 aa] | 0.691 ± 0.016 | 0.685 ± 0.015 |
| RIRQEIIKTKLL [EMP47 C-terminal 12 aa] | 0.67995 ± 0.00042 | 0.234 ± 0.032 |
| RKESSGGCCIIC [RAS1 C-terminal 12 aa] | 0.738 ± 0.014 | 0.709 ± 0.011 |
| RKLLERSNKFHI [PET127 C-terminal 12 aa] | 0.689 ± 0.009 | 0.746 ± 0.088 |
| RKPPGFFDEGFM [FLC3 C-terminal 12 aa] | 0.733 ± 0.061 | 0.6965 ± 0.0051 |
| RKSENYLNGRQT [YNL067W-B C-terminal 12 aa] | 0.681 ± 0.017 | 0.721 ± 0.0088 |
| RKVPYKIIPYVY [ERG24 C-terminal 12 aa] | 0.514 ± 0.019 | 0.5005 ± 0.0021 |
| RLANIQSFFQRQ [TVP23 C-terminal 12 aa] | 0.7155 ± 0.0018 | 0.726 ± 0.064 |
| RLIGELGKLTED [YNL115C C-terminal 12 aa] | 0.683 ± 0.0088 | 0.701 ± 0.037 |
| RLLNLQKVIYST [LDB18 C-terminal 12 aa] | 0.662 ± 0.013 | 0.493 ± 0.064 |
| RMIEYLEEYQAW [FRE4 C-terminal 12 aa] | 0.706 ± 0.0073 | 0.72 ± 0.011 |
| RNIDVSNLPSLA [STM1 C-terminal 12 aa] | 0.691 ± 0.011 | 0.6785 ± 0.0067 |
| RQVLDREGLRFG [TRS31 C-terminal 12 aa] | 0.693 ± 0.027 | 0.705 ± 0.0087 |
| RRDVQSRSSMAC [HFL1 C-terminal 12 aa] | 0.702 ± 0.02 | 0.652 ± 0.0097 |
| RREKRNKALKER [CGR1 C-terminal 12 aa] | 0.7064 ± 0.0034 | 0.6945 ± 0.0019 |
| RRKLKGRWFLSH [MRX14 C-terminal 12 aa] | 0.702 ± 0.0078 | 0.562 ± 0.0085 |
| RRRLTYHRYHPK [YML009C-A C-terminal 12 aa] | 0.731 ± 0.014 | 0.722 ± 0.012 |
| RSASNRHVDYFL [PPG1 C-terminal 12 aa] | 0.6933 ± 0.0059 | 0.698 ± 0.033 |
| RSKLFNLSINNP [SPC72 C-terminal 12 aa] | 0.6997 ± 0.001 | 0.6855 ± 0.0063 |
| RSRKNEGSYLMH [HMT1 C-terminal 12 aa] | 0.6967 ± 0.00082 | 0.693 ± 0.0082 |

| Sequence | protein stability index [1] | protein stability index (genetic background: wild type) |
| --- | --- | --- |
| RSVYDYNGSLKV [CSR1 C-terminal 12 aa] | 0.686 ± 0.012 | 0.691 ± 0.015 |
| RTKGQKWFDGLM [NAT2 C-terminal 12 aa] | 0.6819 ± 0.0031 | 0.698 ± 0.016 |
| RTSPIDNVSNTH [NUT2 C-terminal 12 aa] | 0.693 ± 0.0018 | 0.693 ± 0.046 |
| RYNDERLGPVQG [IRC24 C-terminal 12 aa] | 0.696 ± 0.021 | 0.684 ± 0.043 |
| SAGSLEYTARYM [YML012C-A C-terminal 12 aa] | 0.693 ± 0.036 | 0.671 ± 0.0079 |
| SANGYKRRRYGN [YHC1 C-terminal 12 aa] | 0.716 ± 0.019 | 0.732 ± 0.055 |
| SASGKKKINKNN [ELO1 C-terminal 12 aa] | 0.6991 ± 0.0036 | 0.723 ± 0.042 |
| SDDNNDENMDLD [SSE2 C-terminal 12 aa] | 0.694 ± 0.014 | 0.663 ± 0.018 |
| SDDQILREFLYS [IRE1 C-terminal 12 aa] | 0.726 ± 0.004 | 0.7 ± 0.025 |
| SDISDLDDLGFL [RPN3 C-terminal 12 aa] | 0.7213 ± 0.0065 | 0.679 ± 0.028 |
| SDLQKMLNKRKS [CWC24 C-terminal 12 aa] | 0.69 ± 0.025 | 0.682 ± 0.0099 |
| SDMYDSKRLLYV [YPL035C C-terminal 12 aa] | 0.652 ± 0.033 | 0.537 ± 0.034 |
| SELENKFSNQES [FPY1 C-terminal 12 aa] | 0.7048 ± 0.0039 | 0.735 ± 0.053 |
| SETFATPTPNNR [SPC42 C-terminal 12 aa] | 0.718 ± 0.022 | 0.725 ± 0.01 |
| SFALVFKISAEV [YAR053W C-terminal 12 aa] | 0.448 ± 0.046 | 0.489 ± 0.022 |
| SFDDGRVKRQRT [IOC3 C-terminal 12 aa] | 0.69 ± 0.014 | 0.715 ± 0.075 |
| SFMSYSCDMPTP [YCL022C C-terminal 12 aa] | 0.7225 ± 0.0042 | 0.727 ± 0.071 |
| SFNFDHFDHFDL [YIL054W C-terminal 12 aa] | 0.733 ± 0.019 | 0.743 ± 0.014 |
| SGGWDRSIKLWN [PRP4 C-terminal 12 aa] | 0.711 ± 0.01 | 0.681 ± 0.026 |
| SGNYFFLDNTGI [RLI1 C-terminal 12 aa] | 0.718 ± 0.015 | 0.754 ± 0.056 |
